# Experimental data reported in the supplement of paper PMC9170038.
# System: MS2 coat protein
# Experiment: apparent KD of MS2 coat protein; designed switch direction (-1 OFF switch, 1 ON switch): 1; higher = weaker reporter binding
# How it was run: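 Each step of the titration lasted 0.8–1.5 h at the lowest concentration and 10–20 min at the highest. The protein, SNAP-549-labelled MS2 coat protein, went from 0.7 or 1.5 nM doubling to 3 µM over RNA switches transcribed on Illumina chips by stalled E. coli RNA polymerase. Normalised cluster fluorescence was curve-fitted, and the per-design median over clusters is given as apparent KD.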
# [1] = Eterna round: R95, input ligand: FMN 200 uM
# [2] = Eterna round: R95, input ligand: microRNA oligo, concentration not stated
# [3] = Eterna round: R95, input ligand: none
# [4] = input ligand: microRNA oligo, concentration not stated
Sequence,apparent KD of MS2 coat protein [1] [nM],apparent KD of MS2 coat protein [2] [nM],apparent KD of MS2 coat protein [3] [nM],apparent KD of MS2 coat protein (input ligand: FMN 200 uM) [nM],apparent KD of MS2 coat protein [4] [nM],apparent KD of MS2 coat protein (input ligand: none) [nM]
UAGAAACAUGAGGAUCACCCAUGUGUCAAAGACAUAGGAUAUCGUGACCGGCGCCGGACACGAGAAGGGUGGUAAA [Quingees] (puzzle: Same State 1),387,209,386,,,
"GGAAUAUUUACAGGAUAUGAGUUGUAAAGUCGAUCAGAAGGGUAGAUGUCUUACACGGUUUGUUACAUGAGGAUCACCCAUGUU [SameState NG1 #18] (Eterna round: R96, puzzle: Same State NG 1)",,,,66.9,75.6,86.6
"AGUCCAGCCUGAGCUGGACAAAAGCAUGUACAUGAGGAUCACCCAUGUUCAUGUACAAGCUUUUUGCUCGUCUUAAA [JL zipper 52] (Eterna round: R96, puzzle: Sensor for hsa-mir-208a)",,,,615,13.8,636
AUAACCCGUGCUAAGGAUAUGCGUACUCCUACAUGAGGAUCACCCAUGUCCCGCCGAAAAGGAAGGCAGAAGGUAGCACGGGCCG [Lasoleri] (puzzle: Same State 2),45.7,84.9,126,,,
"AGUCCAGCCUGAGCUGGACAAAAGCAUGUACAUGAGGAUCACCCAUGUCAUGUACAAGCUUUUUGCUCGUUUUAAAA [Zipper 46 - 13] (Eterna round: R96, puzzle: Sensor for hsa-mir-208a)",,,,633,12.9,611
"GGUAGGUUACUACCAAUCUACAUGAGGAUCACCCAUGUGUGGAAGGAUAUGGUACCUAUUUGGUACCAGAAGGUCCAAUUAAUU [Fiskers NG3ss - 7] (Eterna round: R96, puzzle: Same State NG 3)",,,,179,64.7,153
"GUGCUCGUGUAAGGAUAUGCUUCCGUUUCGGCUGCAGAAGGUACUAUUAUACAUGAGGAUCACCCAUGUCUCUUUUGUUUGGUG [salish99_SSNG1_r04_909] (Eterna round: R96, puzzle: Same State NG 1)",,,,89.1,55.5,87.9
"GGAUGAUUAAUAGGAUAUUAUUUGUAAAAUGGUUAAGAAGGAUUAAUGAUUUAAACGACCAGAUACAUGAGGAUCACCCAUGUA [JR_SSNG1_Sub091] (Eterna round: R96, puzzle: Same State NG 1)",,,,,19.5,
"GCUGCAAUAAACGCCUACAUGAGGAUCACCCAUGUAUGUAGGCAGGAUAUCGUUUGCAAAGCAAACGAGAAGGGCUGUAGUAGC [Mat - Same State NG 3 - JL Mod - D38] (Eterna round: R96, puzzle: Same State NG 3)",,,,52.6,59.8,101
"GCGAGCGUACUUGCAGACAUGAGGAUCACCCAUGUAACUGGACAGGAUAUGGUACCGUUUCGGUACCAGAAGGGUUUAUAUGUC [JL SSNG3 3.52] (Eterna round: R96, puzzle: Same State NG 3)",,,,40.4,25.7,57.4
"GAGCUCCAACGCGGAGCUCCACAUGAGGAUCACCCAUGUACACAGGAUAUCACUCCCUUUGGGAGUGAGAAGGGUGGUUCGGAA [Bebeave] (Eterna round: R96, puzzle: Same State NG 3)",,,,41.4,41.9,58.6
"CGCCAGAGAACAGGAUAUGGGCCGCGGCCUAAGGGCUGCUAACUCACAUGAGGAUCACCCAUGUCCCAGAAGGGUUCCUGGCUG [Gexeso] (Eterna round: R96, puzzle: Same State NG 2)",,,,602,31.4,45.8
"AGCUAGUACGAAGGAUAUACAAACAUGAGGAUCACCCAUGUAUACAUGGUUAGAUGUGACUACAUGUAGAAGGUCGUACUAGCA [SameState NG2 #15] (Eterna round: R96, puzzle: Same State NG 2)",,,,225,331,443
"AUCAAAUACCUAGGAUAUAGUACACACAGCGGGCUAGAAGGAGGCGACCACGCUGACAUGAGGAUCACCCAUGUCCAACAGGAU [Eternabot solution 19] (Eterna round: R96, puzzle: Same State NG 1)",,,,48.9,37.8,52.8
"GGCGAACAGGCUAACAUGAGGAUCACCCAUGUGGACUCAUGUUAGGAUAUCGGGAAGGAGGAAACCGAGAAGGGACGGUGAGCU [AK SSNG3-V2-45] (Eterna round: R96, puzzle: Same State NG 3)",,,,191,18,34.1
AGUCCUGAAUAAAUUAAACAGAGACAUGUACAUGAGGAUCACCCAUGUCAUGUACAAGUUCUAUGCUCGUCAUAUAA [Sensorship 19 - Jieux - Sensor for hsa-mir-208a] (puzzle: Sensor for hsa-mir-208a),23,14.6,24.7,,,
CGUCCGGCCUGAGCUGGACGGAAGCAUGUACAUGAGGAUCACCCAUGUUCAUGUGCAGGCUUUUUGCUCGUCUUGUG [JL-shm-2.08 JL mod] (puzzle: Sensor for hsa-mir-208a),105,12.5,127,,,
"GGACGUCAUCUCACUGAUUAAACAUGAGGAUCACCCAUGUCAGAGGAUAUGAGUCCGAUUAGGACUCAGAAGGCUGUGACGUCC [Fiskers NG3ss - 46] (Eterna round: R96, puzzle: Same State NG 3)",,,,19.6,9.14,16
"UAAGUAUGUUGAGGAUAUUAUGUCAAGAGAGAUGACAUGAGGAUCACCCAUGUGUGAAGAGGAUUUAAGAAGGCAACAUACUUA [JR_SSNG2_Sub090] (Eterna round: R96, puzzle: Same State NG 2)",,,,39.9,47.7,66.7
"CCGUAGAUGGUAGGAUAUGGAGCCUUAUUGGCUCCAGAAGGAUCUAAAACAUGAGGAUCACCCAUGUCGGCGGUCAAUAGACCG [Eli NG1ss - 83] (Eterna round: R96, puzzle: Same State NG 1)",,,,67.2,65.1,107
"ACAUGAGACAAAGGAUAUGGUGUACCUACAUGUGACAUGAGGAUCACCCAUGUGGUAAGUAUGACUCAGAAGGUUGAGAUAUGU [Equivalance 74 - Jieux - Same State NG 2] (Eterna round: R96, puzzle: Same State NG 2)",,,,37,203,299
AUUAUACAUGAGGAUCACCCAUGUCAAUGUAGUCGAGGAUAUGGGUUGCUAUGAGGCGUACUAGAAGGCGAGGAGA [Mat - Same State 1 - Mod of JL - D17] (puzzle: Same State 1),61.5,99.9,82.8,,,
"GGUGGGUUACUACCCACACAUGAGGAUCACCCAUGUAUUGGGAAGGAUAUGGUACCUAUUUGGUACCAGAAGGUCCUGAAGGUG [SS-NG3-LRO16] (Eterna round: R96, puzzle: Same State NG 3)",,,,638,545,1170
"AAAAUGCGGGAAGGAUAUGGGAAAGGAAGUGUACCAGAAGGUCUCGCGGCCAAGGACAUGAGGAUCACCCAUGUGAACGCCCGA [PowerStrip SSNG 1.9] (Eterna round: R96, puzzle: Same State NG 1)",,,,98.1,41,59.1
"GGACGUCACAUUAACAUGAGGAUCACCCAUGUCAAAAGACAUGAGGAUAUGGAUCCUAAUUGGAUCCAGAAGGCAUGGACGUCC [Fiskers NG3ss - 39] (Eterna round: R96, puzzle: Same State NG 3)",,,,,373,
GUAUCUACAGGUUUCUUUGCUCGUCUGAUACAUGAGGAUCACCCAUGUUAUAGCCCUGUGCUUGCGCAGGGCUGAGG [Sensor for hsa-mir-208a ( MOD of Tearor v.3 )] (puzzle: Sensor for hsa-mir-208a),34.1,36.6,37,,,
"GAUCGUUUGAUAGGAUAUCGCUAUACAUGAGGAUCACCCAUGUUUACCACGCUGGUUUUUCAUACCGAGAAGGAUUCUGAUGAA [salish99_SSNG02_r04_010] (Eterna round: R96, puzzle: Same State NG 2)",,,,27.5,27.8,30.7
"GGAAACUUGAGAGGAUAUGUAGAGGAUCACCCUACAGAAGGCUCAUUUGAGAGGAUAUGUAGAGGAUCACCCUACAGAAGGCUC [pwkr ssNG DX.13] (Eterna round: R96, puzzle: Same State NG 1)",,,,29.6,26,72.4
"ACUCAGUACAAUUUAGAUCUACAUGAGGAUCACCCAUGUACUGAGGAUAUCAGCUCGAUUAGAGCUGAGAAGGCAGUUGUACUA [SSNG3/10-A2] (Eterna round: R96, puzzle: Same State NG 3)",,,,82.3,161,125
"CUAAACAGAGGAGGAUAUGCAGAGGAUCACCCUGUAGAAGGCCACAGAGGAGGAUAUGCAGAGGAUCACCCUGUAGAAGGCCAC [pwkr ssNG DX.7] (Eterna round: R96, puzzle: Same State NG 1)",,,,121,210,222
